US20230049752A1 (University of California, published 2023)
Changes are numbered by the printed parent chain.

T1: mouse Claudin-6 (CLDN6) (mouse, UniProt Q9Z262 1-219)
T1 construct: whole, on cells; GFP fusion on engineered HEK293T cells; also called Mouse CLDN6; murine CLDN6
T1 sequence (looked up): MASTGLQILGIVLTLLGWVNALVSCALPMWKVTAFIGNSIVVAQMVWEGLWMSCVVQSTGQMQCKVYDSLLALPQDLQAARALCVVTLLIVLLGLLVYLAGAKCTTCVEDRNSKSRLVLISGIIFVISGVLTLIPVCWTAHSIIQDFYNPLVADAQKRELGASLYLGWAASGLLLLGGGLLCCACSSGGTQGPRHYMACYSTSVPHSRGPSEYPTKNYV

T2: Claudin-9 (CLDN9) (human, UniProt O95484 1-217)
T2 construct: whole, on cells; also called CLDN9-GFP; CLDN9-mGFP
T2 sequence (looked up): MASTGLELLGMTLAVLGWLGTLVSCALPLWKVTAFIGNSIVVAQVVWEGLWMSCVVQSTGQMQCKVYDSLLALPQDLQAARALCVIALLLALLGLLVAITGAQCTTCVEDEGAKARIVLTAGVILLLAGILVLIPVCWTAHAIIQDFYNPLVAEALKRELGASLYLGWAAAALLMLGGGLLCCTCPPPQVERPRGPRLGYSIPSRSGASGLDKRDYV

B1: AB14 (antibody, V domains shown)
VH: QVQLQQSGPELVRPGVSVKISCKGSGYTFTDYAMHWVKQSHAKSLEWIGVISTYSGNTNYNQKFQDKATMTVDKSSSTAYMALARLTSDDSAIYYCARRGDYSLYAMDYWGQGTSVTVSS
VL: DIVLTQSPASLAVSLGQRATISCKASQSVDYDGDNYVNWYQQKVGQPPKLLISAASNLESGIPARFSGSGSGTDFTLNIHPVEEEDAATYYCQQSNEDPFTFGSGTKLEIK
B2: AB18 (antibody, V domains shown)
VH: QVQLKQSGPELEKPGASVKISCKASGYSFTGYNMNWVKQSNGKSLEWIGNIDPYYGGSTYNQKFTGKATLTVDKSSSTAYMQLKSLTSEDSAVYYCARERSGYVFSAMDYWGQGTSVTVSS
VL: NIMMTQSPSSLAVSAGEKVTMSCKSSQSVLFSSNQKNYLAWYQQKPGQSPRLLIYWASTRESGVPDRFTGSGSGTDFTLTISNVQAEDLAVYYCHQYLSSRTFGAGTKLELK
B3: AB19 (antibody, V domains shown)
VH: EVQLQQSGPELVKPGGSMKISCKASGYSFTGYTMNWVKRSHGKNLEWIGLINPYNGVTTYNQNFKGKATLAVDKSSSTAYMELLGLTSEDSAVYYCTRDPLYYGYRDSTMDYWGQGTSVTVSS
VL: B2 VL
B4: AB4 (antibody, V domains shown)
VH: QVQLQQSGAELARPGASVKMSCKASGYTFTSYTMHWIKQRPGQGQEWIGYINPSSTYTHYIKKFKDKATLTADKSSSTAYMQLRSLTSEDSAVYYCSRGELGGFAYWGQGTLVTVSA
VL: DVVMTQTPLSLPVSLGDQASISCRSSQSLVHSDGNTYLNWYLQKPGQSPKLLIYKVSNRFSGVPDRFSGSGSGTDFTLKIRRVEAEDLGVYFCSQSTHVPYTFGGGTKLEIK
notes: full-length IgG (ExpiCHO)
B5: AB10 (antibody, V domains shown)
VH: QIQLVQSGPALKKPGETVKISCKASGYTFTDYSMHWIKQAPGKGLKWMGWISTETGEPTYADGFKGRFDFSLETSADTAYLSINNLTNEDTATYFCTRGLWSSFAYWGQGTLVTVSA
VL: B4 VL with S25A, D33N, N39H, Y41F, G73R, R81S, S96I
notes: full-length IgG (ExpiCHO)
B6: AB1 (antibody, V domains shown)
VH: QVQLQQSAAELARPGASVKMSCKASGYTFTTYTMHWVKQRPGQGLEWIGFINPSSGYTDYNQKFKDRTTLTADKSSSTVYMQLSSLTSEDSAVYYCANGDYYVAYWGQGTLVTVSA
VL: QIVLTQSPAIMSASLGERVTMTCTASSSVSSTYFHWYQQKPGSSPKLWIYSTSNLASGVPRRFSGSASGTSYSLTISSMEAEDAATYYCHQYHRSPLTFGAGTKLELK
notes: full-length IgG (ExpiCHO)
B7: AB17 (antibody, V domains shown)
VH: QVQLQQSGAELAKPGASVKMSCKASGYTFTGYWMHWVKQRPGQGLEWLGYINPSTGYTESNQKFKDKATLTADKSSTTAYMQLRSLTPEDSAVYYCAREGITTVLVDYWGQGTTLTVSS
VL: B6 VL with T32S, F34L, R61A, A67G, L97P
B8: AB1-6 (antibody, V domains shown)
VH: QVQLVQSGAEVKKPGASVKMSCKASGYTFTTYTMHWVRQAPGQGLEWIGFINPSSGYTDYAQKFQGRVTLTADTSTSTVYMELSSLRSEDTAVYYCANGDYYVAYWGQGTLVTVSS
VL: DIQMTQSPSSLSASVGDRVTITCTASSSVSSTYFHWYQQKPGKAPKLLIYSTSNLASGVPSRFSGSGSGTDYTLTISSLQPEDFATYYCHQYHRSPLTFGQGTKLEIK
notes: humanized
B9: AB2 (antibody, V domains shown)
VH: EVKLEESGGGLVQPGGSMKLSCVASGFTFSDYWMNWVRQSPEKGLEWVAQIRLKSDNYATHYAESVKGRFTISRDDSKRSVYLQMNNLRAEDTGTYYCNDGPPSGCWGQGTTLIVSS
VL: DIQMTQSPASLSASVGETVTITCRISENIYSYLAWYQQKQGKSPQLLVYNAKILVEGVPSRFSGSGSGTQFSLKINSLQPEDFGNYYCQHHYTVPWTFGGGTKLEIK
notes: full-length IgG (ExpiCHO)
B10: AB3 (antibody, V domains shown)
VH: B9 VH with D31N
VL: B9 VL
notes: full-length IgG (ExpiCHO)
B11: AB9 (antibody, V domains shown)
VH: EVQLQQSGPELVKPGASVKMSCKASGYRFTDYNMHWVKQSHGKSLEWIGYINPNNGGTNYNQNFKGKATLTVNKSSSTAYMELRSLTSEDSAAYYCARDYLYFFDCWGQGTTLTVSS
VL: DIQMTQSPASQSASLGESVTITCLASQTIGTWLAWYQQKPGKSPQLLIYAAASLADGVPSRFSGSGSGTRFSFKISSLQAEDFVSYYCQQLYSIPRTFGGGTKLEIK
B12: AB13 (antibody, V domains shown)
VH: QVQLQQSGAELVRPGTSVKVSCKASGYAFSNYLIEWVKQRPGQGLEWIGVINPGSGGTNYNEKFKGKATMTADKSSSTAYMHLSNLTSEDSVVYFCARSYFGRSYPYTMDYWGQGTSVTVSS
VL: EIVLTQSPTTMAASPGEKITITCSASSSISSNYLHWYQQKPGFSPKLLIYRTSNLASGVPARFSGSGSGTSYSLTIGTMEAEDVATYYCQQGSSIPLTFGAGTKLELK

Assays:
[1] = biological target: human Claudin-6 (CLDN6) (human) (UniProt P56747); experiment: FACS titration of labelled mAb on ARK2 cells (endogenous CLDN6+)
[2] = biological target: human Claudin-6 (CLDN6) (human) (UniProt P56747); experiment: FACS titration of labelled mAb on OVCA429 cells (endogenous CLDN6+)
[3] = biological target: CLDN3/4 (endogenous on LS513 or MCF7 cells); experiment: FACS titration of labelled mAb on LS513 cells (endogenous CLDN3/4+)
[4] = biological target: CLDN3/4 (endogenous on LS513 or MCF7 cells); experiment: FACS titration of labelled mAb on MCF7 cells (endogenous CLDN3/4+)
[5] = biological target: human Claudin-6 (CLDN6) (human) (UniProt P56747); experiment: FACS titration of labelled mAb on HEK293T-CLDN6-mGFP cells
mouse Claudin-6 (CLDN6) [6] = biological target: T1, mouse Claudin-6 (CLDN6); experiment: FACS titration of labelled mAb on HEK293T mouse CLDN6-mGFP cells
Procedure: (§1) CLDN6 antibodies were tested from 0.32 nM to 1000 nM (serial dilution 1:5, 6 points) in a 50 μl volume with 150,000 cells system.
(§2) CLDN6-expressing cells were used in FACS assays to determine the CLDN6 antibody's ability to bind to CLDN6 on the surface of cells and to cross-react with other CLDN family members. HEK293 T cells engineered to express human CLDN6 fused to GFP, mouse CLDN6 fused to GFP, CLDN9-GFP, CLDN4-GFP, or CLDN3-GFP, or GFP alone (without CLDN6) were used as artificial models of CLDN6 expression.
(§3) For each type of cell tested and for each mAb, cells were detached from the surface of the culture flasks by EDTA (instead of trypsin) in order to protect the cell surface proteins. The detached cells were then incubated with Alexa Fluor®-labeled CLDN6 mAbs for 30 min in the dark on ice at a pre-determined concentration. […] After washing, the cells were read by a BD Accuri™ Flow Cytometer C6 to detect antibody-antigen protein binding in channel FL4H. Each antibody was tested at varied concentrations to establish a dose-fluorescence curve. […] Cross-reactivity data were obtained using a similar methodology, but with cells having a different expression profile for CLDN6, CLDN3, CLDN4 and CLDN9.

Claudin-9 (CLDN9) = biological target: T2, Claudin-9 (CLDN9); experiment: FACS titration of labelled mAb on HEK293T CLDN9-mGFP cells
Procedure: as §1, §2, §3

mouse Claudin-6 (CLDN6) [7] = biological target: T1, mouse Claudin-6 (CLDN6); experiment: FACS, 293T clone expressing mouse CLDN6, dose not stated (2nd Ab only 1061.72)
Procedure: Two doses (1.5 μg or 0.3 μg) of the humanized antibodies were tested for binding to either human CLDN6 or murine CLDN6 which proteins were expressed by engineered 293T clones.

[8] = biological target: human Claudin-6 (CLDN6) (human) (UniProt P56747); experiment: FACS, 0.3 ug Ab, ARK2 cells (2nd Ab only 1351.21)
[9] = biological target: human Claudin-6 (CLDN6) (human) (UniProt P56747); experiment: FACS, 0.3 ug Ab, 293T clone expressing human CLDN6 (2nd Ab only 768.07)
[10] = biological target: human Claudin-6 (CLDN6) (human) (UniProt P56747); experiment: FACS, 1.5 ug Ab, ARK2 cells (2nd Ab only 1351.21)
[11] = biological target: human Claudin-6 (CLDN6) (human) (UniProt P56747); experiment: FACS, 1.5 ug Ab, OVCA429 cells (2nd Ab only 885.77)
[12] = biological target: human Claudin-6 (CLDN6) (human) (UniProt P56747); experiment: FACS, 1.5 ug Ab, 293T clone expressing human CLDN6 (2nd Ab only 768.07)

Binder | EC50 [1] [nM] | EC50 [2] [nM] | EC50 [3] [nM] | EC50 [4] [nM] | EC50 [5] [nM] | EC50 (mouse Claudin-6 (CLDN6) [6]) [nM] | EC50 (Claudin-9 (CLDN9)) [nM] | FACS fluorescence (mouse Claudin-6 (CLDN6) [7]) | FACS fluorescence [8] | FACS fluorescence [9] | FACS fluorescence [10] | FACS fluorescence [11] | FACS fluorescence [12]
B1 | 1300 | 1660 | 1160 | 546 | 5000 |  |  |  |  |  |  |  | 
B2 | 1350 | 2440 | 5000 | 5000 | 5000 |  |  |  |  |  |  |  | 
B3 | 5000 | 5000 | 5000 | 5000 | 5000 |  |  |  |  |  |  |  | 
B4 | 48 | 168 | 730 | 653 | 17 | ≥ 5000 | 1860 |  |  |  |  |  | 
B5 | 2140 | 2470 | 1950 | 5000 | 2760 |  | 246 |  |  |  |  |  | 
B6 | 105 | 84 | 5000 | 5000 | 109 | 72 | 2760 |  |  |  |  |  | 
B7 | 5000 | 5000 | 5000 | 5000 | 2650 |  |  |  |  |  |  |  | 
B8 | 5000 | 5000 | 5000 | 5000 | 5000 |  |  | 77600 | 2820 | 120000 | 7740 | 29900 | 227000
B9 | 1360 | 912 | 5000 | 5000 | 182 | ≥ 5000 |  |  |  |  |  |  | 
B10 | 1650 | 1100 | 5000 | 5000 | 604 | 2490 |  |  |  |  |  |  | 
B11 | 1140 | 1160 | 1040 | 5000 | 2670 |  |  |  |  |  |  |  | 
B12 | 1150 | 2290 | 1590 | 5000 | 5000 |  |  |  |  |  |  |  | 
